The values below come from patent US20180021429A1, “ANTICANCER AGENTS OR ANTIMETASTATIC AGENTS USING FSTL1 AND COMBINATION DRUG THEREOF” (PHARMA FOODS INTERNATIONAL CO., LTD., priority 2015, published 2018).

This assay deals with mouse bone marrow cells. Briefly: Inhibition of induction of mesenchymal stem cells (MSC) by FSTL1 in mouse bone marrow cells (Examples 4, 6, 8, 12). In kind it is cell-based. The conditions noted are these: for inhibitory activity against the expansion of ALCAM-positive cells and PDGFRA-positive cells by FSTL1: Example 4: 50 ng/mL FSTL1, 10 μg/mL antibody, vs control anti-DNP antibody. On the procedure:
It is known that when bone marrow cells are stimulated with FSTL1, mesenchymal stem cells (MSCs) having pluripotency or self-proliferative capacity grow (Cancer Research 73: 6185, 2013). Thus, 2×10^7 cells/well of bone marrow cells collected from the thigh bone of a C57BL/6 mouse were suspended in 3 mL/well of RPMI1640 (GIBCO/Thermo Fisher Scientific Inc., Cat. No. C11875500BT) medium containing 2% fetal bovine serum, supplemented with 50 ng/mL (final concentration) of FSTL1 (R&D Systems, Inc. Cat#1694-FN-050) and 10 μg/mL of the anti-FSTL1 antibody (#5-2, […], #5-8, #5-10, #5-43, #6-55, or #7-34) or its isotype mouse IgG (anti-DNP antibody) as a control antibody “Control”, and cultured under stimulation (6-well plate). 11 days thereafter, the number of cells was counted while the cells were stained with a PE-labeled anti-ALCAM antibody (eBioscience, Cat. No. 12-1661-82) and a PE-labeled anti-PDGFRA antibody (eBioscience, Cat#12-1401-81) in order to examine the expression of MSC markers, and the contents of ALCAM-positive cells and PDGFR-positive cells were analyzed by flow cytometry using FACScan (Becton, Dickinson and Company, Code. BECTON-DICKINSON-FACSCAN) to calculate the number of each positive cell per culture.
Mouse bone marrow cells prepared in the same way as in Example 4 were supplemented with 50 ng/mL (final concentration) of FSTL1 and 10 μg/mL of the anti-FSTL1 antibody (#5-2, #5-3, #5-8, #5-10, #5-43, #6-55, or #7-34) or a control antibody anti-DNP antibody and cultured under stimulation. 11 days thereafter, the number of cells was counted while the cells were stained with a PE-Cy5-labeled anti-CD45 antibody (BD Pharmingen/Becton, Dickinson and Company, Cat. No. 555484), and the content of CD45− negative cells reported to generally contain MSCs at a high rate was analyzed by flow cytometry using FACScan to calculate the percentage and number of MSCs per culture (FIG. 99A).
Mouse bone marrow cells prepared in the same way as in Example 4 were supplemented with 20 ng/mL (final concentration) of FSTL1 and 10 μg/mL of the anti-FSTL1 antibody (#5-2, #5-3, #5-8, #5-10, #5-43, #6-55, #8-1, #8-4, #8-7, and #8-8) or a control antibody anti-DNP antibody and cultured under stimulation. 8 days thereafter, the number of cells was counted while the cells were stained with a PE-Cy5-labeled anti-CD45 antibody, and the content of CD45− negative cells was analyzed by flow cytometry using FACScan to calculate the percentage and number of MSCs per culture (FIG. 100A).
Mouse bone marrow cells prepared in the same way as in Example 4 were supplemented with 20 ng/mL (final concentration) of FSTL1 and 10 μg/mL of the anti-FSTL1 antibody (#5-2, #5-8, #6-55, […], #8-1, #8-4, #8-7, or #8-8) or a control antibody anti-DNP antibody and cultured under stimulation. 8 days thereafter, the number of cells was counted while the cells were stained with a PE-Cy5-labeled anti-CD45 antibody, and the content of CD45− negative cells was analyzed by flow cytometry using FACScan to calculate the percentage and number of MSCs per culture (FIG. 101).

The mark [1] stands for this setting: Example 6: 50 ng/mL FSTL1, 10 μg/mL antibody, 11 days, FIG. 99A.
Where [2] appears, read: Example 8: 20 ng/mL FSTL1, 10 μg/mL antibody, 8 days, FIG. 100A.
Setting [3] is: Example 12: 20 ng/mL FSTL1, 10 μg/mL antibody, 8 days, FIG. 101.

B1: #5-43: chicken-mouse chimeric anti-FSTL1 antibody clone; variable regions SEQ ID NO: 779 (light), 781 (heavy) (antibody, V domains shown)
VH: AVTLDESGGGLQTPGGGLSLVCKGSGFTFSSFNMFWVRQAPGKGLEWVAGIGKDGGTGYGAAVDGRATISKDSGQSTLRLQLNNLRAEDTGTYYCAKAAGGCSYDWCGAYTGDIDTWGHGTEVIVSS
VL: ASTQPSSVSANPGEAVKITCSGGSGSYYGWYQQKSPGSAPVTVIYNNNQRPSDIPSRFSGSKSGSTATLTITGVQAEDEAVYFCGGYDSSTGHGGIFGAGTTLTVL
modifications: mouse constant regions
For the molecule B1, the “inhibitory activity against the expansion of ALCAM-positive cells and PDGFRA-positive cells by FSTL1” value (11 days) is “slightly strong tendency of inhibitory activity”. Also, the “inhibitory activity against the expansion of CD45-negative cells by FSTL1” value was “higher inhibitory activity and substantially completely inhibited the action of FSTL1” under setting [1]; “exhibited inhibitory activity” under setting [2].

B2: #5-3: chicken-mouse chimeric anti-FSTL1 antibody clone; variable regions SEQ ID NO: 767 (light), 769 (heavy) (antibody, V domains shown)
VH: AVTLDESGGGLQTPGGALSLVCKGSGFSFSSFNMFWVRQAPGKGLEWVAGIGKDGVPKYGAAVDGRATISKDNGQSTMRLQLNNLRAEDTGTYFCAKAAGGCSYDWCGIYAGDIDTWGHGTEVIVSS
VL: ASTQPSSVSANPGETVKITCSGGSGYYYGWYQQKSPGSVPVTVIYNNNNRPSDIPSRFSGSKSGSTGTLTITGVRAEDEAVYYCGGYDNSGTGIFGAGTTLTVL
modifications: mouse constant regions
Turning to B2, under setting [1], the “inhibitory activity against the expansion of CD45-negative cells by FSTL1” value was “higher inhibitory activity and substantially completely inhibited the action of FSTL1”.

B3: #5-8: chicken-mouse chimeric anti-FSTL1 antibody clone; variable regions SEQ ID NO: 771 (light), 773 (heavy) (antibody, V domains shown)
VH: AVTLDESGGGLQTPGGGLSLVCKGSGFTFSSFNMFWVRQAPGKGLEWVAGIGKDGVPKYGTAVDGRATISKDNGQSTMRLQLNNLRAEDTGTYFCAKAAGGCSYDWCGIYTGDIDTWGHGTEVIVSS
VL: ASTQPSSVSANPGEAVKITCSGGSGSYYGWYQQKSPGSAPVTVIYNNNQRPSDIPSRFSGSKSGSTATLTITGVQAEDEAVYFCGGYDSSTGHGGIFGAGTTLTVL
modifications: mouse constant regions
With B3, the “inhibitory activity against the expansion of CD45-negative cells by FSTL1” value under setting [2] is recorded as “exhibited inhibitory activity”.

B4: #8-4: chicken-mouse chimeric anti-FSTL1 antibody clone; variable regions SEQ ID NO: 795 (light), 797 (heavy) (antibody, V domains shown)
VH: AVTLDESGGGLQTPGGGLSLVCKGSGFTLSSFNMFWVRQAPGKGLEWVAGVGKDGGTAYGAAVDGRATISRDSGQSTVRLQLNNLRAEDTGTYFCAKAAGGCSYSWCGAYVGDLDAWGHGTEVIVSS
VL: ASSQPSSVSANPGETVKITCSGGSGYYYGWYQQKSPGSAPVTVIYNNDNKPSDIPSRFSGSKSGSTGTLTITGVQVEDEAVYFCGGYDNSGTGIFGAGTTLTVL
modifications: mouse constant regions
Regarding B4, the “inhibitory activity against the expansion of CD45-negative cells by FSTL1” value under setting [2] is “exhibited inhibitory activity”.

B5: #5-2: chicken-mouse chimeric anti-FSTL1 antibody clone; variable regions SEQ ID NO: 763 (light), 765 (heavy) (antibody, V domains shown)
VH: AVTLDESGGGLQTPGGGLSLVCKGSGFTFSSFNMFWVRQAPGKGLEWVAGVGKDGGTGYGAAVDGRATISKDNGQSTLRLQLNNLRAEDTGTYYCAKAAGGCSYGWCGSYVGDIDAWGHGTEVIVSS
VL: ASTQPSSVSANPGEAVKITCSGGSGSYYGWYQQKSPGSAPVTVIYNNNQRPSDIPSRFSGSKSGSTATLTITGVQAEDEAVYFCGGYDSSTGHGGIFGAGTTLTVL
modifications: mouse constant regions
Regarding B5, the “inhibitory activity against the expansion of CD45-negative cells by FSTL1” value under setting [3] is “higher inhibitory activity was confirmed in the order of #7-34, #5-2, #6-55, and #8-7”.

B6: #8-7: chicken-mouse chimeric anti-FSTL1 antibody clone; variable regions SEQ ID NO: 799 (light), 801 (heavy) (antibody, V domains shown)
VH: AVTLDESGGGLQTPGGGLSLVCKGSGFTFSSFNMFWVRQAPGKGLEWVAGIGKDGVPKYGAAVDGRATISKDNGQSTLRLQLNNLRAEDTGTYFCAKAAGGCSYDWCGIYAGDIDTWGHGTEVIVSS
VL: ASTQPSSVSANPGEAVKITCSGGSGSYYGWYQQKSPGSAPVTVIYNNNQRPSDIPSRFSGSKSGSTATLTITGVQAEDEAVYFCGGYDSSTGHGGIFGAGTTLTVL
modifications: mouse constant regions
Consider B6, for which, under setting [3], the “inhibitory activity against the expansion of CD45-negative cells by FSTL1” value was “higher inhibitory activity was confirmed in the order of #7-34, #5-2, #6-55, and #8-7”.

B7: #8-1: chicken-mouse chimeric anti-FSTL1 antibody clone; variable regions SEQ ID NO: 791 (light), 793 (heavy) (antibody, V domains shown)
VH: AVTLDESGGGLQTPGGALSLVCKGSGFTFSSFNMFWVRQAPGKGLEWVAGIGKDGVPKYGAAVDGRATISKDNGQSTMRLQLNNLRAEDTGTYFCAKAAGGCSYDWCGIYAGDIDTWGHGTEVIVSS
VL: ASTQPSSVSANPGEAVKITCSGGSGSYYGWYQQKSPGSAPVTVIYNNNQRPSDIPSRFSGSKSGSTATLTITGVQAEDEAVYFCGGYDSSSGHGGIFGAGTTLTVL
modifications: mouse constant regions
As to B7, the “inhibitory activity against the expansion of CD45-negative cells by FSTL1” value under setting [2] is recorded as “exhibited inhibitory activity”.

B8: #6-55: chicken-mouse chimeric anti-FSTL1 antibody clone; variable regions SEQ ID NO: 783 (light), 785 (heavy) (antibody, V domains shown)
VH: AVTLDESGGGLQTPGGALSLVCKGSGFTFTSVTMQWVRQAPGKGLEWVASVCSGSSTYYAPAVKGRATISRDNGQSTVRLQLSNLRPEDTGTYYCAKIAGRARWSCTSAAYNIDAWGHGTEVIVSS
VL: ASTQPSSVSAIPGETVKITCSGGGNNYGWYQQRSPGSAPVTVIYYNDNRPSNIPSRFSGSTSGSTSTLTITGVQADDEAIYYCGSWDSNTDSGIFGAGTTLTVL
modifications: mouse constant regions
On to B8, for which the “inhibitory activity against the expansion of ALCAM-positive cells and PDGFRA-positive cells by FSTL1” value (11 days) is listed as “slightly strong tendency of inhibitory activity”. Also, the “inhibitory activity against the expansion of CD45-negative cells by FSTL1” value is, setting by setting: under setting [2], “exhibited inhibitory activity”; under setting [3], “higher inhibitory activity was confirmed in the order of #7-34, #5-2, #6-55, and #8-7”.

B9: #7-34: chicken-mouse chimeric anti-FSTL1 antibody clone; variable regions SEQ ID NO: 787 (light), 789 (heavy) (antibody, V domains shown)
VH: AVTLDESGGGLQTPGGGLSLVCKASGFTFSSVTMQWVRQAPGKGLEWVASICSGSSTYYGPAVKGRATISRDNGQNTVRLQLNNLRAEDTATYYCAKIVGRGRWSCTSAAYNIDAWGHGTEVIVSS
VL: ASTQPSSVSANPGETVKITCSGGGNNYGWYQQKSPGSAPVTVIYYNNNRPSNIPSRFSGSTSGSTSTLTITGVQAEDEAVYYCGSYEGSTDSGIFGAGTTLTVL
modifications: mouse constant regions
With B9, under “11 days”, the “inhibitory activity against the expansion of ALCAM-positive cells and PDGFRA-positive cells by FSTL1” value is given as “slightly strong tendency of inhibitory activity”. For the same molecule, the “inhibitory activity against the expansion of CD45-negative cells by FSTL1” value runs as follows: under setting [1], “higher inhibitory activity and substantially completely inhibited the action of FSTL1”; under setting [3], “higher inhibitory activity was confirmed in the order of #7-34, #5-2, #6-55, and #8-7”.
